Results published in US20030215899A1, “Reversible oxidation of protein tyrosine phosphatases” (CEPTYR, Inc., priority 2002, published 2003).
Entries after “also recorded” stand apart in the source; their conditions may differ. Each block holds one molecule with its values, some of them ahead of it.

Tests used:
70 kDa PTP (SHP-2) = molecular target: T1, 70 kDa PTP (SHP-2) (Rattus norvegicus, UniProt P41499); assay: modified in-gel PTP assay, growth factor stimulated Rat-1 cells; format: cell-based
T1 construct: endogenous in cells; host or cells: Rat-1 fibroblasts
T1 sequence (P41499 1-593): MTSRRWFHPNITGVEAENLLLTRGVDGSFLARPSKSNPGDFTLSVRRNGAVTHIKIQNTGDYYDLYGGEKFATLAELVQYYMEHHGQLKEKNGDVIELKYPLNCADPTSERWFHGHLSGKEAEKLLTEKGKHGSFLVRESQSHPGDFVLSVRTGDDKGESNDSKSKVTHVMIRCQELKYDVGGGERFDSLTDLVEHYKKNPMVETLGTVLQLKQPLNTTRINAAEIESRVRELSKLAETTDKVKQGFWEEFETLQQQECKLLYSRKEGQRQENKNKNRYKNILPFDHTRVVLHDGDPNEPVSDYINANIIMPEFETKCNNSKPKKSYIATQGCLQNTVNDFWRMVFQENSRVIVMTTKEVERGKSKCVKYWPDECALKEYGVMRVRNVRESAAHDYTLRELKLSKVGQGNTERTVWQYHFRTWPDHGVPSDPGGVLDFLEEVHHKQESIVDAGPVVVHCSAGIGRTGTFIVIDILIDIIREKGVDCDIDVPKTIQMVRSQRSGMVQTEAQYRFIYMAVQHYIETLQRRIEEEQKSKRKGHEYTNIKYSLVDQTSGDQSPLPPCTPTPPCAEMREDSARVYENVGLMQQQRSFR
Description: To determine whether ROS stimulated intracellular tyrosine phosphorylation through the oxidation and inhibition of cellular PTPs, a modified in-gel PTP activity assay was devised, as follows: As substrate, poly (4:1) Glu-Tyr (Sigma) was labeled with [γ-^32P]-ATP using the GST-FER fusion PTK, as described previously (Shen et al., 1998 J. Biol. Chem. 273:6474-81). The labeled substrates were used within three weeks to limit the variation of its specific activity from experiment to experiment. The lysis buffer (25 mM CH3COONa, 1% NP-40, 150 mM NaCl, 10% glycerol, pH 5.5) was degassed at 4° C. for overnight, before catalase and superoxide dismutase (both 100 μg/ml), protease inhibitors and 10 mM iodoacetic acid (IAA) were added. Following stimulation, cells were lysed under anaerobic conditions in an argon chamber. Lysates (25 μg) were processed as described herein and an “in-gel” phosphatase assay (Burridge and Nelson, 1995) was conducted using SDS-PAGE gels containing a radioactively-labeled substrate (1.5×10^6 cpm/20 ml gel solution, approximately 2 μM p-Tyr).
Cells were triggered with the appropriate stimulus and harvested under anaerobic conditions in lysis buffer containing IAA. Those PTPs that had not encountered ROS in the cell became irreversibly inactivated by alkylation of their active site Cys with IAA. However, in contrast, any PTPs in which the active site Cys had been oxidized in response to the stimulus were resistant to alkylation. For the “in-gel” phosphatase assay, a 10% SDS-PAGE gel was cast containing a radioactively-labeled substrate. An aliquot of cell lysate was subjected to SDS-PAGE and proteins in the gel were sequentially denatured, then renatured in the presence of reducing reagents. […] The reaction was then terminated by fixing, staining and destaining the gel. Finally the gel was dried and exposed to film. […]
As described above, treatment of Rat-1 cells with H2O2 led to inactivation of multiple PTPs (FIGS. 2-3). […] Lysates of PDGF-stimulated Rat-1 cells were then analyzed using the modified in-gel PTP activity assay described above. […]

[1] = system: intracellular ROS in Rat-1 cells; assay: ROS-induced DCF fluorescence (microscopy, flow cytometry); format: cell-based; conditions: 20 μM CM-H2DCFDA, growth factor 50 ng/ml, 10 mins
Procedure: The effects of H2O2 and t-BHP on inactivation of PTPs and activation of MAPK signaling pathways were next compared in a cellular context. Intracellular ROS were measured using 2′,7′-dichlorofluorescein diacetate (H2DCFDA) and 5-(and-6)-chloromethyl-2′,7′-dichlorodihydrofluorescein diacetate (CM-H2DCFDA) (all fluorescent ROS indicators from Molecular Probes, Eugene, Oreg.) either by fluorescence microscopy, using a Zeiss Axiovert 405M inverted microscope equipped with a fluorescence attachment and digital camera, or by cell sorting, using a FACSCalibur System ([…].), according to the manufacturer's recommendations. […] Images of ROS-induced DCF fluorescence are shown at magnification 400× (FIG. 3B upper panel). Cells (1×10^5) that underwent the same treatment as above were harvested and resuspended in Hanks' solution, then immediately subjected to flow cytometric analysis to measure ROS-induced DCF fluorescence. The basal peak indicates background fluorescence, whereas the rightward shifted peak indicates ROS-induced DCF fluorescence (FIG. 3B, lower panels). […]
Rat-1 cells were incubated with 20 μM CM-H2DCFDA in the dark for 20 mins, then exposed to peptide growth factors (50 ng/ml) for an additional 10 mins. Images of ROS-induced DCF fluorescence are shown at 50× magnification. […]

MAPK = assay: anti-phospho-MAPK / anti-MAPK immunoblot; format: cell-based, Rat; conditions: peptide growth factors, Rat-1 cells
Procedure: For immunoprecipitation, cells were rinsed with ice-cold PBS, then lysed in ice-cold 20 mM Hepes (pH 7.5), 1% NP-40, 150 mM NaCl, 10% glycerol, 200 μM […] and protease inhibitors (25 μg/ml of aprotinin and leupeptin). […] The anti-pTyr antibody G104 was described previously (Garton et al., 1997 Oncogene 15, 877-885). Anti-PDGFRββ antibody (Ab-X) was a gift from Dr. Daniel DiMaio at Yale University (Irusta and DiMaio, 1998 EMBO J. 17, 6912-6923). Anti-human G-CSF receptor (G-CSFR) antibody was provided by Dr. Toshio Hirano at Osaka University, Japan (Fukada et al., 1996 Immunity 5, 449-460). Lysate (400 μg) was incubated with 5 μg of antibody conjugated to protein A/G-Sepharose (Amersham Pharmacia, Arlington Heights, Ill.) for 2 hours at 4° C. For immunoblotting, aliquots of total lysates (30 μg per sample) or immunoprecipitates were subjected to SDS-PAGE and transferred to nitrocellulose filters, which were incubated with appropriate primary and secondary antibodies and the specific signals were visualized by the ECL detection system (Amersham Pharmacia).

oxidation of SHP-2 (70 kDa PTP (SHP-2); Rat-1 cells transfected with Y1009F mutant G-CSFR/PDGFR chimeric receptor): did not induce oxidation of SHP-2
B1: G-CSF: ligand of the G-CSFR/PDGFR chimeric receptors (protein, UniProt P09919 31-207, looked up)
Granulocyte …: TPLGPASSLPQSFLLKCLEQVRKIQGDGAALQEKLVSECATYKLCHPEELVLLGHSLGIPWAPLSSCPSQALQLAGCLSQLHSGLFLYQGLLQALEGISPELGPTLDTLQLDVADFATTIWQQMEELGMAPALQPTQGAMPAFASAFQRRAGGVLVASHLQSFLEVSYRVLRHLAQP
oxidation and inactivation of SHP-2 (70 kDa PTP (SHP-2); Rat-1 cells transfected with WT G-CSFR/PDGFR chimeric receptor): rapid oxidation and inactivation of SHP-2

B2: EGF: peptide growth factor (protein, UniProt P01133 23-1207, looked up)
Pro-epidermal growth factor: PQHWSCPEGTLAGNGNSTCVGPAPFLIFSHGNSIFRIDTEGTNYEQLVVDAGVSVIMDFHYNEKRIYWVDLERQLLQRVFLNGSRQERVCNIEKNVSGMAINWINEEVIWSNQQEGIITVTDMKGNNSHILLSALKYPANVAVDPVERFIFWSSEVAGSLYRADLDGVGVKALLETSEKITAVSLDVLDKRLFWIQYNREGSNSLICSCDYDGGSVHISKHPTQHNLFAMSLFGDRIFYSTWKMKTIWIANKHTGKDMVRINLHSSFVPLGELKVVHPLAQPKAEDDTWEPEQKLCKLRKGNCSSTVCGQDLQSHLCMCAEGYALSRDRKYCEDVNECAFWNHGCTLGCKNTPGSYYCTCPVGFVLLPDGKRCHQLVSCPRNVSECSHDCVLTSEGPLCFCPEGSVLERDGKTCSGCSSPDNGGCSQLCVPLSPVSWECDCFPGYDLQLDEKSCAASGPQPFLLFANSQDIRHMHFDGTDYGTLLSQQMGMVYALDHDPVENKIYFAHTALKWIERANMDGSQRERLIEEGVDVPEGLAVDWIGRRFYWTDRGKSLIGRSDLNGKRSKIITKENISQPRGIAVHPMAKRLFWTDTGINPRIESSSLQGLGRLVIASSDLIWPSGITIDFLTDKLYWCDAKQSVIEMANLDGSKRRRLTQNDVGHPFAVAVFEDYVWFSDWAMPSVMRVNKRTGKDRVRLQGSMLKPSSLVVVHPLAKPGADPCLYQNGGCEHICKKRLGTAWCSCREGFMKASDGKTCLALDGHQLLAGGEVDLKNQVTPLDILSKTRVSEDNITESQHMLVAEIMVSDQDDCAPVGCSMYARCISEGEDATCQCLKGFAGDGKLCSDIDECEMGVPVCPPASSKCINTEGGYVCRCSEGYQGDGIHCLDIDECQLGEHSCGENASCTNTEGGYTCMCAGRLSEPGLICPDSTPPPHLREDDHHYSVRNSDSECPLSHDGYCLHDGVCMYIEALDKYACNCVVGYIGERCQYRDLKWWELRHAGHGQQQKVIVVAVCVVVLVMLLLLSLWGAHYYRTQKLLSKNPKNPYEESSRDVRSRRPADTEDGMSSCPQPWFVVIKEHQDLKNGGQPVAGEDGQAADGSMQPTSWRQEPQLCGMGTEQGCWIPVSSDKGSCPQVMERSFHMPSYGTQTLEGGVEKPHSLLSANPLWQQRALDPPHQMELTQ
modifications: Pro-epidermal growth factor
production of intracellular ROS [1]: ROS production was not detected
oxidation and inhibition of SHP-2 (70 kDa PTP (SHP-2); peptide growth factors, lysis with 10 mM IAA): not following exposure of these cells to EGF or FGF; also recorded: not by EGF or FGF
activation of MAPK (MAPK): activated MAPK to a similar extent
